# Paper doi:10.1101/2024.10.14.618152
# Target: Zt-KP4-1 (Zt-NIP1) (Zymoseptoria tritici)
# Experiment: SEC
substance,measurement,value
Zt-KP4-1 (Zt-NIP1) (natural protein),stoichiometry N,2
